Laboratory results reported in patent US20150140009A1.

What was measured:
[1] = molecular target: TNFR2/p75 on BM-derived EPCs of TNFR1/p55 knockout mice (mouse) (UniProt P25119); experiment: cell-based or functional assay
[2] = molecular target: TNF-α in conditioned medium of 1 Gy γ-irradiated mouse BM-derived EPCs (IR-CM) (mouse) (UniProt P06804); experiment: cell-based or functional assay
UniProt P06804, sequence (P06804 80-235 limits assumed): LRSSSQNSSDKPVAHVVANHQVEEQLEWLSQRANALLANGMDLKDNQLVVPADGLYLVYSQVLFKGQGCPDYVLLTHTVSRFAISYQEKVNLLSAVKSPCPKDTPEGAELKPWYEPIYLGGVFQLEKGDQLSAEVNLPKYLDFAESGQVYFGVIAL

UniProt P25119, sequence (P25119 23-474): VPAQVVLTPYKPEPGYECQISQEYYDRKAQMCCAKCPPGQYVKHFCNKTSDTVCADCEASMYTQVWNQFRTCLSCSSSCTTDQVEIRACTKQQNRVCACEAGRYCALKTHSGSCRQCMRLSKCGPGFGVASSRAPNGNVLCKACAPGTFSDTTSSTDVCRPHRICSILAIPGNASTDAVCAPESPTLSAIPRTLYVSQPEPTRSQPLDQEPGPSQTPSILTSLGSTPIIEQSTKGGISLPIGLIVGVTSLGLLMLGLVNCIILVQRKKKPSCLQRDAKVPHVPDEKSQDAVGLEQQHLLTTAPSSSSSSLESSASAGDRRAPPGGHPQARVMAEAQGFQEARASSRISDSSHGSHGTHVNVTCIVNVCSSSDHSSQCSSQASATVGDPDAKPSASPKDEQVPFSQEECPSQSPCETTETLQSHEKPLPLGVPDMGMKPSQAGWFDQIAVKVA

Substance | mean p-H2AX foci/cell count, naïve p55KO EPCs, 24 h with TNF (100 pg/ml, 1, 40 ng/ml), all cells counted; control 0.98 [1] | formation of p-H2AX foci in EPCs treated with γ-IR conditioned media after neutralizing TNF [2] | mean p-H2AX foci/cell, naïve WT EPCs, 24 h treatment with 3-day IR-CM treated with TNF-α neutralizing antibody [2] | mean p-H2AX foci/cell, naïve WT EPCs, 24 h treatment with 5-day IR-CM treated with TNF-α neutralizing antibody [2] | mean p-H2AX foci/cell, naïve WT EPCs, 24 h treatment with 1 h IR-CM treated with TNF-α neutralizing antibody [2] | mean p-H2AX foci/cell, naïve WT EPCs, 24 h treatment with 5 h IR-CM treated with TNF-α neutralizing antibody [2] | mean p-H2AX foci/cell, naïve WT EPCs, 24 h treatment with 24 h IR-CM treated with TNF-α neutralizing antibody [2] | mean p-H2AX foci/cell, naïve p55KO EPCs, 24 h treatment with 3-day IR-CM treated with TNF-α neutralizing antibody [2] | mean p-H2AX foci/cell, naïve p55KO EPCs, 24 h treatment with 5-day IR-CM treated with TNF-α neutralizing antibody [2] | mean p-H2AX foci/cell, naïve p55KO EPCs, 24 h treatment with 1 h IR-CM treated with TNF-α neutralizing antibody [2] | mean p-H2AX foci/cell, naïve p55KO EPCs, 24 h treatment with 5 h IR-CM treated with TNF-α neutralizing antibody [2] | mean p-H2AX foci/cell, naïve p55KO EPCs, 24 h treatment with 24 h IR-CM treated with TNF-α neutralizing antibody [2]
mouse recombinant TNF-α (Cat. 34-8321-82; eBiosciences) (from UniProt P06804 80-235) (ligand) | 2.8 to 3.9 foci/cell | – | – | – | – | – | – | – | – | – | – | –
TNF-α neutralizing antibody (Cat. 506309, BioLegend) | – | 2 fold | 3.2 foci/cell | 3.5 foci/cell | 2.4 foci/cell | 4.3 foci/cell | 5 foci/cell | 4.9 foci/cell | 3.5 foci/cell | 3.7 foci/cell | 3.6 foci/cell | 4.2 foci/cell
